Source: doi:10.1101/2025.02.05.636571

System: P41676
Experiment: SEC

Substance: PK2 C181S/C211S (full-length PK2 from the baculovirus AcMNPV, stable mutant, C-terminal His-tag)
- percent in the monomer peak: monomer (62%)
